B1: 376_B11 (antibody, V domains shown)
VH: EVQLLESGGGLVQPGGSLRLSCAASGFTFSSYSMNWVRQAPGKGLEWVSGINYNGGYTSYADSVKGRFTISRDNSKNTLYLQMNSLRAEDTAVYYCARSANWHDTALDYWGQGTLVTVSS
VL: DIQMTQSPSSLSASVGDRVTITCRASQSILSYVNWYQQKPGKAPKLVIYAATSRASGVPSRFSGSGSGTDFTLTISSLQPEDFATYYCQQSYDLPLTFGGGTKVEIK
B2: 369_A05 (antibody, V domains shown)
VH: B1 VH with S49A, S59G, N101T, A106H
VL: B1 VL with S31T, D93E, L94S
B3: 373_H10 (antibody, V domains shown)
VH: B1 VH with S49A, S59G, N101T, A106H
VL: B1 VL with V47L, D93S
B4: 376_H10 (antibody, V domains shown)
VH: B1 VH with S30D, G55S, T58K
VL: B1 VL with S31T, V33L, A55H, L94S
B5: 376_C02 (antibody, V domains shown)
VH: B1 VH with S30D, S33G, G55S
VL: B1 VL with L30V, V33L, A51V, L94S
B6: 369_C10 (antibody, V domains shown)
VH: B1 VH with S49A, G50N, N101T
VL: B1 VL with L30V, S31T, V33L, V47L, R54L, A55H, Y92D, D93S
B7: 376_C01 (antibody, V domains shown)
VH: B1 VH with S30D, S49A
VL: B1 VL with S31T, V33L, V47L, R54L, L94N
B8: 373_G05 (antibody, V domains shown)
VH: B1 VH with S49A, N101T, A106H
VL: B1 VL with V33L, V47L, R54L, D93E
B9: 368_D10 (antibody, V domains shown)
VH: B1 VH with S30D, S33G, S49A, G55S, N101T
VL: B1 VL with V33L, L94S
B10: 367_C03 (antibody, V domains shown)
VH: B1 VH with S49A, G50N, S59G, N101T
VL: B1 VL with A51T, D93E, L94N
B11: 376_C12 (antibody, V domains shown)
VH: B1 VH with S49A, S59G
VL: B1 VL with S31T, V47L, L94S
B12: 376_G09 (antibody, V domains shown)
VH: B1 VH with S30D, G55S, T58K, S59G
VL: B1 VL with L30S, S31Y, V33L, V47L, A51V, L94N
B13: 369_E10 (antibody, V domains shown)
VH: B1 VH with G50N, T58K, N101T
VL: B1 VL
B14: 367_H07 (antibody, V domains shown)
VH: B1 VH with S49A, G50N, S59G, N101T
VL: B1 VL with A51T, D93E, L94N
B15: 368_C01 (antibody, V domains shown)
VH: B1 VH with S30D, S33G, S49A, S59G, N101T
VL: B1 VL with L30I, S31T, V33L, V47L, L94S
B16: 370_G12 (antibody, V domains shown)
VH: B1 VH with S49A, T58K, S59G, N101T
VL: B1 VL with L30I, S31T, V33L, V47L, R54L, Y92D, D93E, L94S
B17: 372_F07 (antibody, V domains shown)
VH: B1 VH with S30D, S31D, S49A, G55S, T58K, S59G, N101T, A106H
VL: B1 VL with S31T, V33L, D93E
B18: 365_E02 (antibody, V domains shown)
VH: B1 VH with S49A, G50N, R98K, N101T, A106H
VL: B1 VL with L30I, V33L, V47L, D93E, L94N
B19: 370_A09 (antibody, V domains shown)
VH: B1 VH with S49A, S59G, N101T, A106H
VL: B1 VL with S31T, V33L, L94T
B20: 376_G08 (antibody, V domains shown)
VH: B1 VH with S30D, S33G, S49A, G50N
VL: B1 VL with L94T
B21: 376_D05 (antibody, V domains shown)
VH: B1 VH with G50N, T58K, S59G
VL: B1 VL with L30V, V47L, R54L, L94T
B22: 366_B04 (antibody, V domains shown)
VH: B1 VH with S30D, S49A, T58K, S59G, N101T, A106H
VL: B1 VL with S31T, A55H, L94T
B23: 376_A06 (antibody, V domains shown)
VH: B1 VH with S30D, G55S, N101T
VL: B1 VL with V33L, A50Y, A51V, T52S, S53N, L94N
B24: 367_A09 (antibody, V domains shown)
VH: B1 VH with S30D, S33G, S49A, N101T, A106H
VL: B1 VL with A55H, L94T
B25: 366_A03 (antibody, V domains shown)
VH: B1 VH with S30D, S49A, G55S, T58K, S59G, N101T, A106H
VL: B1 VL with L30S, V33L, V47L, R54L, D93S, L94N
B26: 369_G07 (antibody, V domains shown)
VH: B1 VH with S49A, N101T, A106H
VL: B1 VL with S31T, L94N
B27: 370_F08 (antibody, V domains shown)
VH: B1 VH with S30D, S49A, N101T, A106H
VL: B1 VL with L30I, V47L, A55H, D93N
B28: 376_E03 (antibody, V domains shown)
VH: B1 VH with S33G, S49A, G50N, S59G
VL: B1 VL with R54L
B29: 365_D05 (antibody, V domains shown)
VH: B1 VH with S30D, S49A, N101T, A106H
VL: B1 VL with S31T, V47L, D93N, L94S
B30: 376_H09 (antibody, V domains shown)
VH: B1 VH with S31D, S49A, G50N, S59G
VL: B1 VL with L30I, S31T, V33L, A50Y, A51V, T52S, S53N, R54L, A55P, L94S
B31: 374_C08 (antibody, V domains shown)
VH: B1 VH with S30D, S33G, G55S, T58K, N101T
VL: B1 VL with V47L, A51V, L94S
B32: 365_G12 (antibody, V domains shown)
VH: B1 VH with S33G, S49A, G55S, N101T
VL: B1 VL with D93S, L94N
B33: 376_E08 (antibody, V domains shown)
VH: B1 VH with S31D, S33G, S49A
VL: B1 VL with L30V, L94S
B34: 373_E04 (antibody, V domains shown)
VH: B1 VH with S30D, S49A, N101T, A106H
VL: B1 VL with S31T, V47L, D93N, L94S
B35: 376_D11 (antibody, V domains shown)
VH: B1 VH with S33G, S49A, G50N, S59G
VL: B1 VL with V33L, D93N, L94N
B36: 365_B03 (antibody, V domains shown)
VH: B1 VH with S49A, S59G, N101T, A106H
VL: B1 VL with L30V, V33L, V47L, D93E, L94N
B37: 376_B06 (antibody, V domains shown)
VH: B1 VH with S49A, G55S, T58K, S59G, N101T, A106H
VL: B1 VL with S31T, V33L, V47L
B38: 376_B07 (antibody, V domains shown)
VH: B1 VH with S30D, G55S, N101T
VL: B1 VL with V33L, A50Y, A51V, T52S, S53N, L94N
B39: 376_B01 (antibody, V domains shown)
VH: B1 VH with S30D, S49A, N101T, A106H
VL: B1 VL with S31T, D93N
B40: 376_C06 (antibody, V domains shown)
VH: B1 VH with S33G, S49A, N101T
VL: B1 VL with V33L, L94S
B41: 369_F07 (antibody, V domains shown)
VH: B1 VH with S30D, S49A, T58K, N101T, A106H
VL: B1 VL with D93E, L94S
B42: 365_F07 (antibody, V domains shown)
VH: B1 VH with G50N, T58K, N101T
VL: B1 VL
B43: 370_H03 (antibody, V domains shown)
VH: B1 VH with S30D, S49A, G55S, T58K, S59G, N101T, A106H
VL: B1 VL with S31T, V33L, V47L, R54L, L94T
B44: 365_A07 (antibody, V domains shown)
VH: B1 VH with S33G, S49A, G55S, T58K, S59G, N101T, A106H
VL: B1 VL with L30V, V33L, V47L, D93N
B45: 373_E03 (antibody, V domains shown)
VH: B1 VH with S30D, S33G, G50N, S59G, N101T
VL: B1 VL

Residue numbers refer to the chain shown, from its start.

In the assay the target is human Fc (human). Nature of the assay: ELISA; negative control. (In general: ELISA stands for enzyme-linked immunosorbent assay.)
Regarding B1, the optical density is 0.261 OD.

B2: the optical density amounted to 0.588 OD. In the case of B3 it was 0.2 OD; in that of B4, 0.318 OD. In turn, B5 registered an optical density of 0.222 OD. The molecule B6 yielded an optical density of 0.32 OD. Then B7, with 0.324 OD. In the case of B8 it was 0.273 OD; in that of B9, 0.245 OD. Then B10, with 0.275 OD; and B11, with 0.438 OD.

For B12, the optical density turned out to be 0.23 OD. In the case of B13 it was 0.412 OD; in that of B14, 0.297 OD. B15 had an optical density of 0.41 OD.

As for B16, the optical density turned out to be 0.418 OD. B17: the optical density came to 0.296 OD. In turn, B18 came in with an optical density of 0.357 OD. In the case of B19 it was 0.361 OD. Then B20, with 0.22 OD; and B21, with 0.215 OD; and B22, with 0.331 OD. B23 returned an optical density of 0.262 OD. In the case of B24 it was 0.259 OD; in that of B25, 0.303 OD; in that of B26, 0.32 OD.

B27 registered an optical density of 0.495 OD. As for B28, the optical density came to 0.234 OD. Then B29, with 0.357 OD; and B30, with 0.281 OD; and B31, with 0.178 OD. In the case of B32 it was 0.556 OD. In the case of B33 it was 0.332 OD. Regarding B34, the optical density was determined as 0.251 OD. Then B35, with 0.267 OD; and B36, with 0.444 OD; and B37, with 0.222 OD. Then B38, with 0.234 OD; and B39, with 0.308 OD. Then B40, with 0.29 OD; and B41, with 0.335 OD.

In turn, B42 came in with an optical density of 0.331 OD. In the case of B43 it was 0.381 OD; in that of B44, 0.284 OD; in that of B45, 0.194 OD.

Values taken from patent US20210380703A1.
